Marks after values point to notes of the source that are not given here.
Experiment: Haematological investigations
Format: in vivo
Details: mice, 100 μg/mouse
Protocol: To assess the neutralising activity of Ab-IPL-IL-17™, CD-1 mice were injected i.p. with 100 μg/mouse of Ab-IPL-IL-17™, MAB421 or secukinumab as positive controls. After 30 min, an i.p. injection of 10 μg/mouse of IL-17A, IL-17F or IL-17A/F heterodimer was administered. After 2 h blood was collected by intracardiac puncture and serum levels of (A) IL-17A, (B) IL-17F or (C) IL-17A/F heterodimer were quantified by Elisa. (C-F) For the evaluation of immunogenic effects CD-1 mice were injected i.p. with 100 μg of IgG1 isotype antibody (vehicle) or IL-17 neutralising antibodies (bimekizumab, secukinumab, MAB421 or Ab-IPL-IL-17™). In the selected time-point (2 h, 24 h, 72 h, 7 days, 14 days and 21 days) total IgG, IgG1, lymphocytes and platelets levels were determined by Elisa and haematological blood count test, respectively. Data are presented as mean±S.D. for n=5 mice per group. Statistical analysis was conducted by one or two-way ANOVA followed by Bonferroni's for multiple comparisons. *P≤0.05, **P≤0.01, ***P≤0.001 vs IL-17 group; ^#P≤0.05, ^##P≤0.01, ^###P≤0.001, ^####P≤0.0001 vs vehicle group.
(§1) Standard laboratory procedures were used for blood sampling and measurements (95). Haematological investigations, for all experimental conditions, including blood count test, leukocyte, and sidereal formula were performed on citrated and not-anticoagulated blood samples, respectively. Serological tests were performed by CELL-DYN Sapphire purchased from Abbott S.R.L. (Milan, Italy). All procedures were conducted under strictly aseptic conditions.
as §1, with “measurements.” for “measurements (95).”

Substance: Bimekizumab: IL-17 neutralising antibody (reference)
- GRA (Granulocytes) (2 h): 0.24 ± 0.11 10^3/μL
- HCT (Hematocrit) (2 h): 29.96 ± 2.29%
- HGB (Hemoglobin) (2 h): 9.88 ± 1.02 g/dL
- MCH (Mean Corpuscular Hemoglobin) (2 h): 16.98 ± 1.38 pg
- MCV (Mean Cell Volume) (2 h): 61.22 ± 5.70 fL
- MHCH (2 h): 30.00 ± 3.06 g/dL
- MID (2 h): 0.36 ± 0.24 10^3/μL
- MPV (Mean Platelet Volume) (2 h): 4.64 ± 0.86 fL
- PCT (Plateletcrit) (2 h): 0.26 ± 0.07%
- PWD (Platelet Distribution Width) (2 h): 16.80 ± 1.42%
- RBC (Red Blood Cells) (2 h): 5.84 ± 1.62 10^6/μL
- RDW (Red blood cells Distribution Width) (2 h): 18.82 ± 1.75%
- WBC (White Blood Cells) (2 h): 3.90 ± 0.91 10^3/μL
- GRA (Granulocytes) (24 h): 0.22 ± 0.16 10^3/μL
- HCT (Hematocrit) (24 h): 29.56 ± 2.16%
- HGB (Hemoglobin) (24 h): 9.08 ± 1.55 g/dL
- MCH (Mean Corpuscular Hemoglobin) (24 h): 18.92 ± 1.42 pg
- MCV (Mean Cell Volume) (24 h): 62.32 ± 10.33 fL
- MHCH (24 h): 30.70 ± 3.18 g/dL
- MID (24 h): 0.42 ± 0.31 10^3/μL
- MPV (Mean Platelet Volume) (24 h): 5.00 ± 1.12 fL
- PCT (Plateletcrit) (24 h): 0.26 ± 0.06%
- PWD (Platelet Distribution Width) (24 h): 16.04 ± 1.30%
- RBC (Red Blood Cells) (24 h): 4.63 ± 0.99 10^6/μL
- RDW (Red blood cells Distribution Width) (24 h): 18.42 ± 1.18%
- WBC (White Blood Cells) (24 h): 4.60 ± 1.70 10^3/μL
- GRA (Granulocytes) (72 h): 0.30 ± 0.10 10^3/μL
- HCT (Hematocrit) (72 h): 22.04 ± 4.37** %
- HGB (Hemoglobin) (72 h): 7.10 ± 1.38* g/dL
- MCH (Mean Corpuscular Hemoglobin) (72 h): 21.46 ± 2.04* pg
- MCV (Mean Cell Volume) (72 h): 80.98 ± 9.17 fL
- MHCH (72 h): 30.62 ± 5.57 g/dL
- MID (72 h): 0.42 ± 0.22 10^3/μL
- MPV (Mean Platelet Volume) (72 h): 7.96 ± 1.95**** fL
- PCT (Plateletcrit) (72 h): 0.17 ± 0.03%
- PWD (Platelet Distribution Width) (72 h): 17.94 ± 2.99%
- RBC (Red Blood Cells) (72 h): 3.79 ± 1.02* 10^6/μL
- RDW (Red blood cells Distribution Width) (72 h): 17.12 ± 2.05%
- WBC (White Blood Cells) (72 h): 4.84 ± 2.49 10^3/μL
- GRA (Granulocytes) (7 d): 0.26 ± 0.11 10^3/μL
- HCT (Hematocrit) (7 d): 22.48 ± 3.74* %
- HGB (Hemoglobin) (7 d): 8.10 ± 1.33 g/dL
- MCH (Mean Corpuscular Hemoglobin) (7 d): 21.22 ± 3.74 pg
- MCV (Mean Cell Volume) (7 d): 72.78 ± 8.77 fL
- MHCH (7 d): 29.36 ± 5.05 g/dL
- MID (7 d): 0.46 ± 0.18 10^3/μL
- MPV (Mean Platelet Volume) (7 d): 6.78 ± 1.09* fL
- PCT (Plateletcrit) (7 d): 0.22 ± 0.07%
- PWD (Platelet Distribution Width) (7 d): 16.04 ± 2.71%
- RBC (Red Blood Cells) (7 d): 4.18 ± 0.93 10^6/μL
- RDW (Red blood cells Distribution Width) (7 d): 18.14 ± 3.00%
- WBC (White Blood Cells) (7 d): 5.08 ± 1.37 10^3/μL
- GRA (Granulocytes) (14 d): 0.20 ± 0.12 10^3/μL
- HCT (Hematocrit) (14 d): 28.36 ± 3.19%
- HGB (Hemoglobin) (14 d): 9.06 ± 1.84 g/dL
- MCH (Mean Corpuscular Hemoglobin) (14 d): 17.48 ± 1.38 pg
- MCV (Mean Cell Volume) (14 d): 61.10 ± 9.83 fL
- MHCH (14 d): 29.96 ± 4.45 g/dL
- MID (14 d): 0.40 ± 0.10 10^3/μL
- MPV (Mean Platelet Volume) (14 d): 5.66 ± 0.92 fL
- PCT (Plateletcrit) (14 d): 0.26 ± 0.05%
- PWD (Platelet Distribution Width) (14 d): 16.02 ± 1.63%
- RBC (Red Blood Cells) (14 d): 5.81 ± 1.41 10^6/μL
- RDW (Red blood cells Distribution Width) (14 d): 18.26 ± 2.28%
- WBC (White Blood Cells) (14 d): 3.00 ± 0.68 10^3/μL
- GRA (Granulocytes) (21 d): 0.22 ± 0.13 10^3/μL
- HCT (Hematocrit) (21 d): 29.20 ± 2.70%
- HGB (Hemoglobin) (21 d): 10.06 ± 1.27 g/dL
- MCH (Mean Corpuscular Hemoglobin) (21 d): 17.96 ± 1.57 pg
- MCV (Mean Cell Volume) (21 d): 62.92 ± 6.53 fL
- MHCH (21 d): 30.50 ± 4.52 g/dL
- MID (21 d): 0.32 ± 0.16 10^3/μL
- MPV (Mean Platelet Volume) (21 d): 5.02 ± 0.76 fL
- PCT (Plateletcrit) (21 d): 0.28 ± 0.03%
- PWD (Platelet Distribution Width) (21 d): 16.24 ± 1.83%
- RBC (Red Blood Cells) (21 d): 6.37 ± 1.11 10^6/μL
- RDW (Red blood cells Distribution Width) (21 d): 18.02 ± 1.34%
- WBC (White Blood Cells) (21 d): 3.32 ± 1.18 10^3/μL
